In the RNAGym collection of RNA variant scans (doi:10.1073/pnas.2313332121):
This sample holds only a part of the variants without activity.

B1: TPR 5TU (parent)
chain: GGAUCUUCUCGAUCUAACAAAAAAGACAAAUCUGCCACAAAGCUUGAGAGCAUCUUCGGAUGCAGAGGCGGCAGCCUUCGGUGGCGCGAUAGCGCCAACGUUCUCAACUAUGACACGCAAAACGCGUGCUCCGUUGAAUGGAGUUUAUCAUG

Variants of: B1
Assay: polymerase ribozyme fitness, log enrichment relative to wild type (log ratio); higher = more active; in vitro selection for triplet polymerase activity
Outline: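 PCR was used to build mutant libraries for each subunit of a heterodimeric triplet polymerase ribozyme, which were then transcribed. A single in vitro selection round, in triplicate, used a frozen incubation at −7 °C and recovered extended constructs by gel excision, streptavidin beads and RT-PCR. Fitness is the logarithm of genotype enrichment relative to wild-type enrichment, averaged over replicates with inverse-variance weights. The logarithm is base 2, and after Illumina sequencing only genotypes with ≥10 input reads and ≥1 read per output were kept.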

Row | Variant | polymerase ribozyme fitness (log ratio)
1 | C14G C95U | -1.57
2 | C14U C18A A19C A22G C93A A120C U139C G143U | ≤ -4.2
3 | C14U C118U | -1.65
4 | C14U C43U C72A G84A C93G C95G A142G U144A | ≤ -4.2
5 | C14G C36U U45G G59A C95U A97G A98U C125A U139G | -4.03
6 | C14G G88C A137U | ≤ -4.2
7 | C14U C32G U33G A47U U53A G74A C95G A106G U135A | ≤ -4.2
8 | C14G C76G A89C C93G C95G U127G U151G | ≤ -4.2
9 | C14U A138C | -3.75
10 | C14G U56G C57U C63U C72U U151G | ≤ -4.2
11 | C14G G59C C69A A142G | ≤ -4.2
12 | C14U A47C G84A | -2.49
13 | C14G C69G C96A G124A | -3.69
14 | C14U C18G C32G A66C C93U A98U | ≤ -4.2
15 | C14U G46A C54A C132A | ≤ -4.2
16 | C14G U33C U56A C85A C99G G117U C123U | -3.91
17 | C14U C76A C85U | -2.67
18 | C14U C18A A20C C93A G136A A142C | -2.57
19 | C14U C54U G68C G84C C87G A91C A147C | ≤ -4.2
20 | C14G G133U | ≤ -4.2
21 | C14U A28U C51G A97G | ≤ -4.2
22 | C14U A52C U56A A97U A98U | -4.07
23 | C14U A29U G71A G88C C93A | ≤ -4.2
24 | C14G U53A C85G U90A A91U C99A C118A A120U | ≤ -4.2

Row | Variant | polymerase ribozyme fitness (log ratio)
25 | C14G G88U C93A C116G U144A | ≤ -4.2
26 | C14G C63U G67C U77A C85A G124C | ≤ -4.2
27 | C14U A29U C54G G83U G84U C105G U151G | ≤ -4.2
28 | C14U C85A G140A | ≤ -4.2
29 | C14G C51U C96U | -3.1
30 | C14G G83A U90G G92U U102G C105A C118U A120C U146G | ≤ -4.2
31 | C14G C18U C38U U53C G58A U90G C93G A115C C118U A137U | ≤ -4.2
32 | C14U C96A | -1.59
33 | C14G U31G | -2.12
34 | C14U C63U C85A A115G | -3.56
35 | C14G C51U U61A | -4.06
36 | C14U C87U U101C C118G | -3.29
37 | C14U A52U C54A G83U C96G A98U | -3.86
38 | C14G C38U G68U G80U A91G C103A U139C | ≤ -4.2
39 | C14G C85U | -2.1
40 | C14U A17U A24U C76A C85U | -3.79
41 | C14G C93A | -3.68
42 | C14G C75U G94C A122U G124A | -3.86
43 | C14U A17U A24G A41C C51U U56A C93A A115C | ≤ -4.2
44 | C14G C18U C57U G65A G83A A106C G117U | ≤ -4.2
45 | C14U A115G | -2.56
46 | C14U C87U U102C | -4.18
47 | C14U C87A | ≤ -4.2
48 | C14U C87U | -2.18

Row | Variant | polymerase ribozyme fitness (log ratio)
49 | C14G C99G | -3.32
50 | C14U C27G A37U A39G A66C U77A U78G C85U A89U C95G | ≤ -4.2
51 | C14U C76A C87U | -3.49
52 | C14G C85G C131A | ≤ -4.2
53 | C14U A26C G48C U53G C54A C93A U145A U148C | ≤ -4.2
54 | C14U C57A A89G C96U U101A G136U | ≤ -4.2
55 | C14G C32U G48A C103U U127C | ≤ -4.2
56 | C14G U148A | -4.14
57 | C14G G25U C36A U55G G65C C75U G141C | ≤ -4.2
58 | C14U G48A A64C U90C U102G C103G A115G A122G U127A A150C | ≤ -4.2
59 | C14G C35U C95U U101A | -3.82
60 | C14G C131U | -1.27
61 | C14U C57U | -1.27
62 | C14G A137U | ≤ -4.2
63 | C14G U15C G84U | -1.26
64 | C14G C79A C93G C96A | ≤ -4.2
65 | C14G G50C A66G C85G A106G | ≤ -4.2
66 | C14G C43A G88U A110U G112C U127G | ≤ -4.2
67 | C14U A26U C54U C79U G94A U111G C123U | ≤ -4.2
68 | C14G U15G A19C A22C A41G G58C C93U | -3.91
69 | C14G U31A G136A | -2.23
70 | C14U C72A C85G G133U | ≤ -4.2
71 | C14G C18U A21G G86C C105U C129A U130C | ≤ -4.2
72 | C14G U53A C54A U61G G62U U146C | ≤ -4.2

Row | Variant | polymerase ribozyme fitness (log ratio)
73 | C14G G83U | -2.05
74 | C14G C57A C85U C99A C123U | -3.49
75 | C14U C54U C57U C72U G83A | -4.05
76 | C14G U33C G84U G94A | -4.16
77 | C14G C27G G94A | ≤ -4.2
78 | C14G G92U | -2.61
79 | C14G G83A C96U A110G A142U U148A | ≤ -4.2
80 | C14U A17G G83A C108U | ≤ -4.2
81 | C14G U78A G86A | ≤ -4.2
82 | C14G G65U G67U G133A U135A | ≤ -4.2
83 | C14U C35A A40G G84A | ≤ -4.2
84 | C14U A17U A28G U44A A73G C95A G100U A106G A115G | ≤ -4.2
85 | C14G U82A G84A C87U C118G | -3.78
86 | C14U A17G G70C G80A A137U | ≤ -4.2
87 | C14G C38A A60G U77A U78C C87G C125A U139G | ≤ -4.2
88 | C14G G25C A47U G50A C93A U102A G124C | ≤ -4.2
89 | C14U A20C U33A C93G C103G C118U | ≤ -4.2
90 | C14U A17C C35G G141C U151A | ≤ -4.2
91 | C14U C54G C93A C95G A150G | ≤ -4.2
92 | C14U A20U A24U G42A A49C C57A A60C U104G C114A A115C | ≤ -4.2
93 | C14U C27U U90C A91U C116G | -3.77
94 | C14U A23C | ≤ -4.2
95 | C14U A73U U78G C87G A122U C123U | ≤ -4.2
96 | C14U C93A | -3.4

Row | Variant | polymerase ribozyme fitness (log ratio)
97 | C14U A16C C51U A52G C93U C116A A121C | -1.81
98 | C14G C87U G141A | -2.56
99 | C14G U55G C57U G86C C125G A137U | ≤ -4.2
100 | C14U A28U C96G | ≤ -4.2
101 | C14G C18U G92C | -2.89
102 | C14G C32G | -4.17
103 | C14U A21G A49G | -2.56
104 | C14G A97U A98G | -2.74
105 | C14G U82C | -3.65
106 | C14U C105G | -3.25
107 | C14G U127G | -4.18
108 | C14G G50A G58C U82C G141C | -4.17
109 | C14U A122G | -1.71
110 | C14G U61A C87U C95G U135G A142C | ≤ -4.2
111 | C14U A16C C57G G83U C85U A107G G140C A142C | ≤ -4.2
112 | C14G A106C C118A C123U | -4.16
113 | C14U C57G C85U G152A | -3.89
114 | C14U A41C C75G G84U C118A | ≤ -4.2
115 | C14U C18A A28U C54A A91G U148G | ≤ -4.2
116 | C14G U15G C18G U55G G68A | ≤ -4.2
117 | C14U G34U G68A C85U U144A C149A | ≤ -4.2
118 | C14G C18U A52G G81U G92A C131G | ≤ -4.2
119 | C14G U31A G68A G86A A91G C108A C118G | ≤ -4.2
120 | C14U C54U C87A A89G C96U A121U A142C | ≤ -4.2

Row | Variant | polymerase ribozyme fitness (log ratio)
121 | C14U C79A G84A A150G | ≤ -4.2
122 | C14G G59A A73U C87G | ≤ -4.2
123 | C14G C87G A107G | ≤ -4.2
124 | C14U C85U | -1.65
125 | C14G C27U G48A C57A A60U G88C A106U | ≤ -4.2
126 | C14U A17U A19C U44A G68A A73G G86U C96U C149G | ≤ -4.2
127 | C14G C18U U144C | -2.22
128 | C14G G86C | ≤ -4.2
129 | C14G C96U | -2.21
130 | C14G U102A | -4.05
131 | C14U A19C C76U C99U | -3.03
132 | C14U C87U C99U U101G A137C U145G | ≤ -4.2
133 | C14U A28U A122G G141C | -4.15
134 | C14U C35U C85U A106G A115G | -3.81
135 | C14U A19U U55A | -1.9
136 | C14G C35A A60G U130C U134C | ≤ -4.2
137 | C14G C85A C95G C103U U146A | ≤ -4.2
138 | C14G U15C C51U G68A G83A U90G C149G | ≤ -4.2
139 | C14G C36U G92C | ≤ -4.2
140 | C14G U77G A97U U111C | -4.01
141 | C14G G84A | -2.16
142 | C14G A91U G143U | -3.88
143 | C14U A47C C54U G84A | -1.86
144 | C14G C85A C116U A122C | ≤ -4.2

Row | Variant | polymerase ribozyme fitness (log ratio)
145 | C14G C18U | -1.18
146 | C14G G48C A49G U53A G92U C93U A107U | ≤ -4.2
147 | C14U A40G U56A G59C C76U A121U | -4.02
148 | C14G G50U C95U C96U A115G | -4.1
149 | C14G C18G U82G G84C | ≤ -4.2
150 | C14G C87U C149A | ≤ -4.2
151 | C14U C27G G94C G133U A150G | ≤ -4.2
152 | C14U A24C U53A G67U C108U A150G | ≤ -4.2
153 | C14G C85U C96U A113C A122U G143A | ≤ -4.2
154 | C14G C32G G141U A147C | ≤ -4.2
155 | C14U A19U C87U C99A | -3.91
156 | C14U A64G A91U C105G | ≤ -4.2
157 | C14G U56A C85G G92A | ≤ -4.2
158 | C14U G50C | -3.52
159 | C14G C57A G92A C96U A107C G124U | ≤ -4.2
160 | C14G G59A C87U | -3.82
161 | C14U A21G A29G C85U C116A | -4.2
162 | C14G C95G C96G | -4.07
163 | C14U A47C G50A G70A U77C C85A C125G C132A A142U | ≤ -4.2
164 | C14U A17C C18G A20G G59U C85U A91U C118U G140A | ≤ -4.2
165 | C14U C93U U127A C131A | ≤ -4.2
166 | C14G G88C C125G | -4.08
167 | C14U C54U G84A G133U | -3.87
